Key:
P675 (Ixodes ricinus) = experiment: BLI; OctetRed; evasin held on a nickel-coated biosensor by its C-terminal His tag; titration with chemokine from 600 to 0.4 nM; noninteracting reference protein; fit R2 ≥0.96, at least five data points
[1] = target: P1126 (Amblyomma cajennense); experiment: as above
P942 (Ixodes ricinus) = experiment: as above
[2] = target: P1142 (Amblyomma cajennense); experiment: as above
[3] = target: CXC-motif chemokine ligand 10 (CXCL10) (human) (UniProt P02778)

Sequence of CXCL11 (O14625 22-94): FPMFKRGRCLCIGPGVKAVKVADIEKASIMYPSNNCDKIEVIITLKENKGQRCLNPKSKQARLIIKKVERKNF

CXCL11 (from UniProt O14625 22-94) (ligand)
Kd (P675 (Ixodes ricinus)): < 20 nM
Kd [1]: > 300 nM
Kd (P942 (Ixodes ricinus)): < 20 nM
Kd [2]: > 300 nM

EVA3:S5 (from UniProt P0C8E8 70-86)
neutralization of human CXCL8-induced granulocyte migration (Transwell, EC80 dose of CXCL8, EVA3:S5 0.05–200 nM); mean IC50 of four biological replicates (CXCL8 (human)): 3.23e-08 M
neutralization of human CXCL10-induced migration of activated human CD8+ T-cells (Transwell, EC80 dose of CXCL10, EVA3:S5 0.015–1000 nM); mean IC50 of five biological replicates [3]: 3.11e-08 M

CXC-motif chemokine ligand 10 (CXCL10) (from UniProt P02778 22-98)
Kd (P675 (Ixodes ricinus)): > 100 nM
Kd [1]: < 10 nM
Kd (P942 (Ixodes ricinus)): > 100 nM
Kd [2]: < 10 nM
target residence time [2]: > 10 min

P1142 (natural protein)
neutralization of human CXCL10-induced migration of activated human CD8+ T-cells (Transwell, EC80 dose of CXCL10, P1142 0.015–150 nM); mean IC50 of five biological replicates [3]: 1.85e-09 M
